Assay results taken from PMC9038631 (Journal of neuroendocrinology, 2022).

Molecular target: T1, aromatase (rat (endogenous in hypothalamus and …, UniProt P22443 1-508))
T1 sequence (looked up): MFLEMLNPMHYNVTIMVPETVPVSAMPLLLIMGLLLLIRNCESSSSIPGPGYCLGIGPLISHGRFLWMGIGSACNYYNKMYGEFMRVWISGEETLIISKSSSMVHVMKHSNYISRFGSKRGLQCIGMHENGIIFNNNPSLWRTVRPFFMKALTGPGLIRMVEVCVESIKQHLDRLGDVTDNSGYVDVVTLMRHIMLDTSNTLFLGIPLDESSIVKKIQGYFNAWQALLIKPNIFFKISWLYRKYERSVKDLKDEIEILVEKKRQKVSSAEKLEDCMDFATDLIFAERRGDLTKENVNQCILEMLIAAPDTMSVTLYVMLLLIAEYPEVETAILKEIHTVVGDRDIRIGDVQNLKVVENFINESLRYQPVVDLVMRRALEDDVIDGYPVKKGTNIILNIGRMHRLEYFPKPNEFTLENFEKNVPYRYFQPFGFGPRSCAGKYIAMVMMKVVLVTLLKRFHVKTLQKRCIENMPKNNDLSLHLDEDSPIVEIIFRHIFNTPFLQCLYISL
Assay: co-IP

B1: protein phosphatase 5 (PP5) (enzyme, UniProt P53042 1-499, looked up)
chain: MAMAEGERTECAEPPRDEPPAEGTLKRAEELKTQANDYFKAKDYENAIKFYSQAIELNPSNAIYYGNRSLAYLRTECYGYALGDATRAIELDKKYIKGYYRRAASNMALGKFRAALRDYETVVKVKPNDKDAKMKYQECSKIVKQKAFERAIAGDEHRRSVVDSLDIESMTIEDEYSGPKLEDGKVTITFMKDLMQWYKDQKKLHRKCAYQILVQVKEVLCKLSTLVETTLKETEKITVCGDTHGQFYDLLNIFELNGLPSETNPYIFNGDFVDRGSFSVEVILTLFGFKLLYPDHFHLLRGNHETDNMNQIYGFEGEVKAKYTAQMYELFSEVFEWLPLAQCINGKVLIMHGGLFSEDGVTLDDIRKIERNRQPPDSGPMCDLLWSDPQPQNGRSVSKRGVSCQFGPDVTKAFLEENQLDYIIRSHEVKAEGYEVAHGGRCVTVFSAPNYCDQMGNKASYIHLQGSDLRPQFHQFTAVPHPNVKPMAYANTLLQLGMM
- fold more co-IPed with hypothalamic than with spinal aromatase: 5.4 fold
